Assay results published in the supplement of paper PMC9233669.
This sample holds only a part of the variants without activity.

Legend:
biotinyl-Phe-oxazolone = experiment: self-aminoacylation, catalytic enhancement (BFO) (fold over background); higher = more active; k-Seq, kA / k0A0; sequences stand for … in GGGAAUGGAUCCACAUCUACGAAUUC…UUCACUGCAGACUUGACGAAGCUG
Summary of the method: (§1)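 Mutagenized RNA pools (0.43 μM; 21-nt variable region) were treated with 2–1250 μM of each biotinyl-aminoacyl-oxazolone. Conditions were 50 μL HEPES/NaCl/KCl/MgCl2/CaCl2 buffer, 5% acetonitrile, pH 6.9–7.0, room temperature, 90 minutes. Catalytic enhancement, the median kA relative to the uncatalyzed rate, was derived from streptavidin capture, qPCR and Illumina sequencing.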

biotinyl-Met-oxazolone = experiment: self-aminoacylation, catalytic enhancement (BMO) (fold over background); higher = more active; k-Seq, kA / k0A0; sequences stand for … in GGGAAUGGAUCCACAUCUACGAAUUC…UUCACUGCAGACUUGACGAAGCUG
Summary of the method: as §1

biotinyl-Ile-oxazolone = experiment: self-aminoacylation, catalytic enhancement (BIO) (fold over background); higher = more active; k-Seq, kA / k0A0; sequences stand for … in GGGAAUGGAUCCACAUCUACGAAUUC…UUCACUGCAGACUUGACGAAGCUG
Summary of the method: as §1

biotinyl-Trp-oxazolone = experiment: self-aminoacylation, catalytic enhancement (BWO) (fold over background); higher = more active; k-Seq, kA / k0A0; sequences stand for … in GGGAAUGGAUCCACAUCUACGAAUUC…UUCACUGCAGACUUGACGAAGCUG
Summary of the method: as §1

biotinyl-Leu-oxazolone = experiment: self-aminoacylation, catalytic enhancement (BLO) (fold over background); higher = more active; k-Seq, kA / k0A0; sequences stand for … in GGGAAUGGAUCCACAUCUACGAAUUC…UUCACUGCAGACUUGACGAAGCUG
Summary of the method: as §1

biotinyl-Val-oxazolone = experiment: self-aminoacylation, catalytic enhancement (BVO) (fold over background); higher = more active; k-Seq, kA / k0A0; sequences stand for … in GGGAAUGGAUCCACAUCUACGAAUUC…UUCACUGCAGACUUGACGAAGCUG
Summary of the method: as §1

| Sequence | self-aminoacylation (biotinyl-Phe-oxazolone) | self-aminoacylation (biotinyl-Met-oxazolone) | self-aminoacylation (biotinyl-Ile-oxazolone) | self-aminoacylation (biotinyl-Trp-oxazolone) | self-aminoacylation (biotinyl-Leu-oxazolone) | self-aminoacylation (biotinyl-Val-oxazolone) |
| --- | --- | --- | --- | --- | --- | --- |
| AAAGUUGCUAAUAGUCGCAAG [Fam3.1 aminoacylation ribozyme variant] | 3.77 | 2.06 | – | – | – | – |
| AAAUUUGCUAACAGUCGCAAG [Fam3.1 aminoacylation ribozyme variant] | 2.2 | – | 2.02 | – | – | – |
| AAAUUUGCUAAUUGUCGCAAG [Fam3.1 aminoacylation ribozyme variant] | – | 2.03 | – | – | – | – |
| AACUUUGCUAAUACUCGCAAG [Fam3.1 aminoacylation ribozyme variant] | 2.02 | – | 2.19 | – | – | – |
| AAGCUUGCUAAUAGUCGCAAA [Fam3.1 aminoacylation ribozyme variant] | 2.75 | 2.21 | – | 2.2 | – | – |
| AAGUUCGCGAAUAGUCGCAAG [Fam3.1 aminoacylation ribozyme variant] | 5.66 | 2.31 | – | 3.3 | – | – |
| AAGUUUGCCAAUAGUCGCAGG [Fam3.1 aminoacylation ribozyme variant] | 15.8 | 2.73 | – | 3.26 | 2.33 | 2.08 |
| AAGUUUGCGAAUAGUCGCAAU [Fam3.1 aminoacylation ribozyme variant] | 6.18 | 2.13 | – | – | – | – |
| ACGUUUGCUAAAAGUCGCAAG [Fam3.1 aminoacylation ribozyme variant] | 3.93 | 2.09 | – | 3.43 | – | – |
| AGGUUUGCUAAAAGUCGCAAG [Fam3.1 aminoacylation ribozyme variant] | 10.5 | 2.13 | – | 4.38 | – | – |
| AGUACCCUGGUCAUCGUGUGA [Fam2.1 aminoacylation ribozyme variant] | 16.3 | 3.07 | – | 3.88 | 3.43 | 2.06 |
| AUACACCUAGGUCAUCGGCUG [Fam2.2 aminoacylation ribozyme variant] | 4 | 2.13 | – | – | 2.03 | – |
| AUUACACUGGUCAUAGAGUGA [Fam2.1 aminoacylation ribozyme variant] | 8.72 | 3.15 | – | 3.92 | 3.62 | 2.13 |
| AUUACCAUGCUCAUCGAGUGA [Fam2.1 aminoacylation ribozyme variant] | 2.98 | 2.63 | – | 2.15 | 2.12 | – |
| AUUACCCUGAUCAGCGAGUGA [Fam2.1 aminoacylation ribozyme variant] | 3.1 | 2.71 | – | 4.93 | 2.74 | 2.3 |
| AUUACCCUGGACAUCAAGUGA [Fam2.1 aminoacylation ribozyme variant] | 5.55 | 2.33 | – | 2.98 | 2.29 | – |
| AUUACCCUGGCCUUCGAGUGA [Fam2.1 aminoacylation ribozyme variant] | 17.9 | 3.21 | – | 5.17 | 4.36 | 2.53 |
| AUUACCCUGGUCAACGAGUGU [Fam2.1 aminoacylation ribozyme variant] | 6.18 | 2.91 | – | 3.43 | 3 | – |
| AUUACCCUGGUCACCGAGUAA [Fam2.1 aminoacylation ribozyme variant] | 10.1 | 2.62 | – | – | 2.46 | 2.34 |
| AUUACCCUGGUCAGCGAGCGA [Fam2.1 aminoacylation ribozyme variant] | – | 2.34 | – | – | 2.33 | 2.08 |
| AUUACCCUGGUCCUCGAGGGA [Fam2.1 aminoacylation ribozyme variant] | – | – | – | 2.37 | – | 2.15 |
| AUUACCCUUGUCAUCGUGUGA [Fam2.1 aminoacylation ribozyme variant] | 5.78 | 2.59 | – | 2.88 | 2.69 | – |
| AUUACCUUCGUCAUCGAGUGA [Fam2.1 aminoacylation ribozyme variant] | 2.48 | 2.22 | – | 2.15 | 2.18 | – |
| AUUACCUUGGUCCUCGAGUGA [Fam2.1 aminoacylation ribozyme variant] | 17.8 | 3.05 | – | 4.39 | 3.95 | 2.11 |
| AUUAUCCUCGUCAUCGAGUGA [Fam2.1 aminoacylation ribozyme variant] | 5.23 | 2.95 | – | 3 | 2.75 | – |
| AUUCACCUACGUCAUCUGGUG [Fam2.2 aminoacylation ribozyme variant] | 6.74 | 2.09 | – | – | 2.24 | – |
| AUUCACCUAGGUCAUCGCGAG [Fam2.2 aminoacylation ribozyme variant] | 4.46 | – | – | – | – | 2.31 |

| Sequence | self-aminoacylation (biotinyl-Phe-oxazolone) | self-aminoacylation (biotinyl-Met-oxazolone) | self-aminoacylation (biotinyl-Ile-oxazolone) | self-aminoacylation (biotinyl-Trp-oxazolone) | self-aminoacylation (biotinyl-Leu-oxazolone) | self-aminoacylation (biotinyl-Val-oxazolone) |
| --- | --- | --- | --- | --- | --- | --- |
| AUUCACCUAGUUCAUAGGGUG [Fam2.2 aminoacylation ribozyme variant] | 15.4 | 3.63 | – | 3.14 | 3.8 | – |
| AUUCACCUCGGUCAUCGGGUC [Fam2.2 aminoacylation ribozyme variant] | 9.78 | – | – | – | 2.04 | 2.01 |
| AUUCACCUUGGUCAUCGGGGG [Fam2.2 aminoacylation ribozyme variant] | 13 | 2.04 | – | 2.28 | 2.84 | 2.04 |
| AUUCACGUAGGUCAUCGAGUG [Fam2.2 aminoacylation ribozyme variant] | 2.42 | 2.92 | – | 2.73 | 2.67 | – |
| AUUCACGUAGGUCAUCGGGAG [Fam2.2 aminoacylation ribozyme variant] | – | 2.07 | – | – | – | 2.13 |
| AUUCGCCUAGGUCAUAGGGUG [Fam2.2 aminoacylation ribozyme variant] | 7.92 | 2.16 | – | – | 2.47 | – |
| AUUGACCUAGCUCAUCGGGUG [Fam2.2 aminoacylation ribozyme variant] | 11 | 2.14 | – | 2.71 | – | – |
| AUUGCCCUGGUCAUCGUGUGA [Fam2.1 aminoacylation ribozyme variant] | 24 | 2.93 | – | 3.2 | 3.19 | – |
| AUUUCCCUGGUCAUCGAGCGA [Fam2.1 aminoacylation ribozyme variant] | – | 2.25 | – | 2.59 | 2.18 | – |
| CAGUUUGCUAAUAGUCGCAAA [Fam3.1 aminoacylation ribozyme variant] | 4.61 | – | 2.35 | – | – | – |
| CCACACCUCAAGCAAUCGGUA [Fam1B.1 aminoacylation ribozyme variant] | – | – | – | – | – | 2.1 |
| CCACACUUAAAGCAAUCGGGC [Fam1B.1 aminoacylation ribozyme variant] | – | – | 2.19 | – | – | – |
| CCACACUUCAAGCAAUCGCUU [Fam1B.1 aminoacylation ribozyme variant] | – | 2.06 | – | – | 2.09 | – |
| CCACACUUCAAGCAAUGGGUG [Fam1B.1 aminoacylation ribozyme variant] | 10.7 | 2.61 | – | 2.39 | 3 | 2.24 |
| CCACACUUCAAGCAGUCGGCC [Fam1B.1 aminoacylation ribozyme variant] | 4.85 | 2.22 | – | – | 2.47 | 2.84 |
| CCACACUUCAAGCAUUCGGUA [Fam1B.1 aminoacylation ribozyme variant] | – | – | – | – | – | 2.44 |
| CCACACUUCAGGCGAUCGGUC [Fam1B.1 aminoacylation ribozyme variant] | 4.75 | 2.1 | – | – | – | 2.42 |
| CCACACUUCUAGCAAUCGGCC [Fam1B.1 aminoacylation ribozyme variant] | – | 2.54 | – | 2.72 | 2.06 | 2.2 |
| CCAUACUUCAAGCAAUCGGCC [Fam1B.1 aminoacylation ribozyme variant] | 2.88 | 2.36 | – | 3.74 | 2.33 | – |
| CCCCACGUCAAGCAAUCGGUC [Fam1B.1 aminoacylation ribozyme variant] | 5.6 | – | – | 2.49 | – | 2.4 |
| CCCCACUGCAAGCAAUCGGUC [Fam1B.1 aminoacylation ribozyme variant] | 4.31 | – | – | 3.43 | – | 2.35 |
| CUACCUCAAACAAUCGGGCUG [Fam1A.1 aminoacylation ribozyme variant] | 2.01 | 2.02 | – | – | 2.4 | – |
| CUACUUCAAUCAAUCGGCCUG [Fam1A.1 aminoacylation ribozyme variant] | 34.9 | – | – | 30.3 | 2.56 | – |
| GAGCUUGCUAAUAGUCGCAAG [Fam3.1 aminoacylation ribozyme variant] | 4.81 | 2.03 | – | 2.4 | – | 2.02 |
| GAGUUUGCUAAAAGUCGCAAG [Fam3.1 aminoacylation ribozyme variant] | 8.71 | – | – | 5.66 | – | 2.1 |
| GCACACAUCAAGCAAUCGGUC [Fam1B.1 aminoacylation ribozyme variant] | 3.12 | – | 2.01 | 2.22 | – | – |
| GUUCACCUAGGUCAUAGGGUG [Fam2.2 aminoacylation ribozyme variant] | 2.11 | – | – | 2.22 | 2.08 | – |
